Results: the nanobody polyreactivity screen of Harvey et al. (2022)

Assay: yeast display, Sf9 membrane polyspecificity reagent, FACS + sequencing; frameworks hold sequencing errors
In short: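 After 36–48 hours of galactose induction, yeast (Saccharomyces cerevisiae BJ5465) displaying a synthetic nanobody library were stained at 4 °C for 1 hour with 10% biotinylated, detergent-solubilized Sf9 membrane reagent. Streptavidin microbeads enriched the stained cells before FACS sorting into low and high (top ~1%) gates on anti-HA and streptavidin fluorescence. Each clone's polyreactivity label reflects its gate of origin.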
In the case of “QVQLVESGGGLVQAGGSLRLSCAASGSTFWHNAMGWYRQAPGKERELVAAISYSGGNTNYADSVKGRFTISRDNAKNTVYLQMNSLKPEDTAVYYCNAPDVFPQAIYDYWGQGTQVTVSS”, the “polyreactivity (PSR sort gate)” value is reported as “high polyreactivity”. For “QVQLVESGGGLVQAGGSLRLSCAASGSTFWHYAMGWYRQAPGKERELVASISGRGTSTYYADSVKGRFTLSRDNAKNTVYLQMNSLKPEDTAVYYCAATKWYRAFDYWGQGTQVTVSS”, the “polyreactivity (PSR sort gate)” value was “low polyreactivity”. For “QVQLVESGGGLVQAGGSLRLSCAASGSTFWIYAMGWYRQAPGKERELVAAINWSGGNTYYADSVKGRFTISRDNAKNTVYLQMNSLKPEDTAVYYCAAAFYIYGVEGDYWGQGTQVTVSS”, the “polyreactivity (PSR sort gate)” value was “low polyreactivity”. With “QVQLVESGGGLVQAGGSLRLSCAASGSTFWKYAMGWYRQAPGKERELVASIRSGGSTYYADSVKGRFTISRDNAKNTVYLQMNSLKPEDTAVYYCAAVTHGRYDWGQGTQVTVSS” the “polyreactivity (PSR sort gate)” value was “high polyreactivity”. For “QVQLVESGGGLVQAGGSLRLSCAASGSTFWPYAMGWYRQAPGKERELVAAIRVIGGSKYYADSVKGRFTISRDNAKNTVYLQMNSLKPEDTAVYYCNAYRPGGARFYARYRYDYWGQGTQVTVSS”, the “polyreactivity (PSR sort gate)” value was “low polyreactivity”. With “QVQLVESGGGLVQAGGSLRLSCAASGSTFWPYTMGWYRPATGKESELVAAISLSGGSTYYADSVKGRFTISRDNAKNSVYLQMNSLKPEDTAVYYCAAEGGYQNWHYLYEYWGQGTQVTVSS” the “polyreactivity (PSR sort gate)” value was “low polyreactivity”. For “QVQLVESGGGLVQAGGSLRLSCAASGSTFWSYAMGWYRPAPGKERELVAAITSGGRTYYADSVKGRFTISRDNAKNTVYLQMNSLKPEDTAVYYCAAEGSVGLYGLIMHYWGQGTQVTVSS”, the “polyreactivity (PSR sort gate)” value was “high polyreactivity”. For “QVQLVESGGGLVQAGGSLRLSCAASGSTFWSYAMGWYRQAPGKERELVASISRRGGSTSYADSVKGRFTISRDNAKNTVYLQMNSLKPEDTAVYYCAARLLRTTKPRSGYGYWGQGTQVTVSS”, the “polyreactivity (PSR sort gate)” value was “high polyreactivity”. For “QVQLVESGGGLVQAGGSLRLSCAASGSTFWTNAMGWYRQAPGKERELVAAISRSGGSTYYADSVKGRFTISRDNAKNTVYLQMNSLKPEDTAVYYCNAVLPYYRGSHYDYWGQGTQVTVSS”, the “polyreactivity (PSR sort gate)” value was “high polyreactivity”. For “QVQLVESGGGLVQAGGSLRLSCAASGSTFWTNDMGWYRQAPGKERELVAAISQSAGDTYYADSVKGRFTISRDNAKNTVYLQMNSLKPEDTAVSYCAADLVFYPFTWDGYYYWGQGTQVTVSS”, the “polyreactivity (PSR sort gate)” value was “low polyreactivity”. With “QVQLVESGGGLVQAGGSLRLSCAASGSTFWVNAMGWYRQAPGKERELVAAISERGGRTYYADSVKGRFTISRDNAKNTVYLQMNSLKPEDTAVYYCNRVTRSNVDYWGQGTQVTVSS” the “polyreactivity (PSR sort gate)” value was “high polyreactivity”. With “QVQLVESGGGLVQAGGSLRLSCAASGSTFWVNAMGWYRQAPGKERELVAAITVRGTSTYYADSVKGRFTISRDNAKNTVYLQMNSLKPEDTAVYYCAADTPSNSHDYWGQGTQVTVSS” the “polyreactivity (PSR sort gate)” value was “low polyreactivity”. In the case of “QVQLVESGGGLVQAGGSLRLSCAASGSTFWVNARGWYRQAPGKERELVAAIRRGGSTKYADSVKGRFTISRDNAKTTVYLQMNSLKPEDTAVYYCAADSYRTPAIYDYWGQGTQVTVSS”, the “polyreactivity (PSR sort gate)” value is reported as “high polyreactivity”. In the case of “QVQLVESGGGLVQAGGSLRLSCAASGSTFWVYAMGWYRQAPGKERELVAGISNSGGNTYYADSVKGRFTISRDNAKNTVYLQMNSLKPEDTAVYYCNVDRGNPVPPSEYWGQGTQVSVSS”, the “polyreactivity (PSR sort gate)” value is reported as “low polyreactivity”. With “QVQLVESGGGLVQAGGSLRLSCAASGSTFWWTTMGWYRQAPGTERELVAAITTGGGTYYADSVKGRFTISRDNAKNTVYLQMNSLKPEDTAVYYCNADYDSQYHYLLRYDYWGQGTQVTVSS” the “polyreactivity (PSR sort gate)” value was “low polyreactivity”. With “QVQLVESGGGLVQAGGSLRLSCAASGSTFWWYAMGWYRPAPGKERELVARISNGGGTNYADSGKGRFTISRDNEKNSVFLQMNSLIPEDTAVYYCAATVGVAYYENDYWGQGTQVTVSS” the “polyreactivity (PSR sort gate)” value was “low polyreactivity”. In the case of “QVQLVESGGGLVQAGGSLRLSCAASGSTFWYNTMGWYRQAPGKERELVAAITSSGGSTYYADSVKGRFTISRDNAKNTVYLQMNSLKPEDTAVYYCNALHTRTGVKARYYYWGQGTQVTVSS”, the “polyreactivity (PSR sort gate)” value is reported as “high polyreactivity”. In the case of “QVQLVESGGGLVQAGGSLRLSCAASGSTFWYYDMGWYRQAPGKERELVAAITSGGRTNYADSVKGRFTISRDNAKNTVYLQMNSLKPEDTAVYYCNAVSYGKYVFQDGDYWGQGTQVTVSS”, the “polyreactivity (PSR sort gate)” value is reported as “high polyreactivity”. For “QVQLVESGGGLVQAGGSLRLSCAASGSTFWYYDMGWYRQAPGQERALVAASTSGGRTNYADSVKGRVTISRDKAKNTVYLQMNSLKPEDTAVYYCARTSYRFYRKRYYWGQGTQVTVSS”, the “polyreactivity (PSR sort gate)” value was “high polyreactivity”. With “QVQLVESGGGLVQAGGSLRLSCAASGSTFWYYGMGWYRQAPGKEMELVARINWSTGRTYYADSVKGRFTISRDTAKNTVYLQMNSLKPEDTAVYYCNALNPYKGQEAHYDYWGQGTQVTVSS” the “polyreactivity (PSR sort gate)” value was “high polyreactivity”. For “QVQLVESGGGLVQAGGSLRLSCAASGSTFWYYTMGWYRQAPGKERELVAGITSGGSTYYADSVKGRFTISRDNAKNTVYLQMNSLKPEDTAVYYCAKRYYGRGYYYWGQGTQVTVSS”, the “polyreactivity (PSR sort gate)” value was “high polyreactivity”. For “QVQLVESGGGLVQAGGSLRLSCAASGSTFYANAMGWYRQAPGKERELVAAITRSGAGTYYADSVKGRFTFSRDNAKNTVYLQMNSLKPEDTAVYYCATRYGQWGQGTQVTVSS”, the “polyreactivity (PSR sort gate)” value was “high polyreactivity”. With “QVQLVESGGGLVQAGGSLRLSCAASGSTFYANAMGWYRQAPGKERELVAEISFSGASTFYADSVKGRFTISRDNAKNTVYLQMNSLKPEDTAVYYCATANPSVVGFDYWGQGTQVTVSS” the “polyreactivity (PSR sort gate)” value was “low polyreactivity”. In the case of “QVQLVESGGGLVQAGGSLRLSCAASGSTFYANPMGWYRQAPGKERELLAAITSGGSTNYADSVKGRFTISRDNAKITVYLQMISLKPEDTAVYYCATQVNRERHAEDYWGQGTQVTVSS”, the “polyreactivity (PSR sort gate)” value is reported as “low polyreactivity”. With “QVQLVESGGGLVQAGGSLRLSCAASGSTFYAYAMGWYRPAPGKERELVAAISSDGTNYADSVKGRFTISRDNAKNTVYLQMNSLKPEDTAVYYCAADLLLYSSQDNDYWGQGTQVTVSS” the “polyreactivity (PSR sort gate)” value was “low polyreactivity”. With “QVQLVESGGGLVQAGGSLRLSCAASGSTFYAYAMGWYRQAPGKERELVAAIRRSTGRTYYADSVKGRFTISRDNAKNTVYLQMNSLKPEDTAVYYCAASYPVDYYDMYYWGQGTQVTVSS” the “polyreactivity (PSR sort gate)” value was “high polyreactivity”. With “QVQLVESGGGLVQAGGSLRLSCAASGSTFYAYAMGWYRQAPGKERELVAAISSDGTNYADSVKGRFTISRDNAKNSVNLQMNSLKPVDTAVYYCAADLLLYSSQDNDYWGQGTQVTVSS” the “polyreactivity (PSR sort gate)” value was “low polyreactivity”. In the case of “QVQLVESGGGLVQAGGSLRLSCAASGSTFYAYAMGWYRQAPGKERELVARIRWRGGRTYYADSVKGRFTISRDNAKNTVYLRMNSLKPEDTAVYYCNRGYYSYYGRYYYWGQGTQVTVSS”, the “polyreactivity (PSR sort gate)” value is reported as “high polyreactivity”. For “QVQLVESGGGLVQAGGSLRLSCAASGSTFYAYAMGWYRQAPGKERELVAVITSSGSTYYADSVKGRFTISRDNAKNTVYLQMNSLKPEDTAVYYCAAKRLSQSRRTQFRTRYPPMYYWGQGTQVTVSS”, the “polyreactivity (PSR sort gate)” value was “high polyreactivity”. For “QVQLVESGGGLVQAGGSLRLSCAASGSTFYAYAMGWYRQAPGKGGELVAAIDSGGSTYYADSVKGRFTISRDNAKNTVYLQMNSLKPEDTAVYYCAVRHRYTRAYWGRDYWGQGTQVTVSS”, the “polyreactivity (PSR sort gate)” value was “low polyreactivity”. For “QVQLVESGGGLVQAGGSLRLSCAASGSTFYAYAMGWYSQAPGKERELVAAITRSGGSTYYADSVKGRFTISRDNAKNTVYLQMNSLKPEDTDVYYCNKYGYKGGVGYDYWGQGTQVTLSS”, the “polyreactivity (PSR sort gate)” value was “high polyreactivity”. In the case of “QVQLVESGGGLVQAGGSLRLSCAASGSTFYDNAMGWYRQAPGKERELVAAINWSSDTTYYADSVKGRFTISRDNAKNTVYLQMNSLKPEDTAVYYCATDSAYRGYDYWGQGTQVTVSS”, the “polyreactivity (PSR sort gate)” value is reported as “low polyreactivity”. With “QVQLVESGGGLVQAGGSLRLSCAASGSTFYDYAMGWSRQAPGKERELVAAINGNGDSTYYADSVKGRFTISRDNAKITVYLLMNSLKPEDTAVYDCAAYLGWGYDYWGQGTQVTVSS” the “polyreactivity (PSR sort gate)” value was “low polyreactivity”. In the case of “QVQLVESGGGLVQAGGSLRLSCAASGSTFYDYAMGWYRQAPGKERELVAAISRGGSTYYADCVKGRFTISRDNAKNTVYLQMNSLKPEDTAVYYCAAGRSYDSGFYYWGQGTQVTVSS”, the “polyreactivity (PSR sort gate)” value is reported as “low polyreactivity”. In the case of “QVQLVESGGGLVQAGGSLRLSCAASGSTFYDYAMGWYRQAPGKERVLVAAISTSGGSTYADSVYGRFTISRDNAKNTVYLQMNSLKPEDTAVYYCNADDPGYAVPWYWFKYDYWGQGTQVTVSS”, the “polyreactivity (PSR sort gate)” value is reported as “low polyreactivity”. For “QVQLVESGGGLVQAGGSLRLSCAASGSTFYDYAMGWYRQAPGKESELVAAITSSGASTYYADSVKGRFTISRDNAKNTVYLQMNSLKPEDTAVYYCAARKVWRSIRVALDYWGQGTQVTVSS”, the “polyreactivity (PSR sort gate)” value was “high polyreactivity”. In the case of “QVQLVESGGGLVQAGGSLRLSCAASGSTFYEYAMGWYRQAPGKERELVAAITSGGSTYYADSVKGRFTISRDNAKNTVYLQMNSLKPEDTAVYYCAADPRIRRGDRSTHGYDYWGQGTQVTVSS”, the “polyreactivity (PSR sort gate)” value is reported as “low polyreactivity”. In the case of “QVQLVESGGGLVQAGGSLRLSCAASGSTFYFIAMGWFRQAPGKEWELVAVIDGSGGFTYYADSVKGRFTISRDNAKNTVYLQMNSLKPEDTAVYYCAADKTQSHYDDWGQGTQVTVTS”, the “polyreactivity (PSR sort gate)” value is reported as “high polyreactivity”. For “QVQLVESGGGLVQAGGSLRLSCAASGSTFYFNAMGWYRQAPGKARELVAAIDWSGGSTYYADSVKGRFTISRDNAKNTVYLQMNSLKPEDTAVYYCAAPYHYYGNTVGYADYDYWGQGTQVTVSS”, the “polyreactivity (PSR sort gate)” value was “low polyreactivity”. For “QVQLVESGGGLVQAGGSLRLSCAASGSTFYFNAMGWYRQAPGKERELVAGIRYSGSSTYYADSVKGRFTISRDNAKNTVYLQMNSLKPVDTAVYYCAASLWRWRFSGFGYWGQGTQVTVSS”, the “polyreactivity (PSR sort gate)” value was “high polyreactivity”. In the case of “QVQLVESGGGLVQAGGSLRLSCAASGSTFYFYVLGWYRQAPGKERELVAAISWGGASTYYAVSVKGRFTISRDHAKNTVYLQLNSLKPEDTAVYNCTDRLRVRYDYWGQGTQVTVSS”, the “polyreactivity (PSR sort gate)” value is reported as “low polyreactivity”. In the case of “QVQLVESGGGLVQAGGSLRLSCAASGSTFYGNAMAWYRQAPGKEREFVAAISSGGRTYYADSVKGRFTISRDNAKNTVYLQMNSLKPEDTAVYYCAVRRSAFYARFGRNYWGQGTQVTVSS”, the “polyreactivity (PSR sort gate)” value is reported as “low polyreactivity”. With “QVQLVESGGGLVQAGGSLRLSCAASGSTFYGYAMGGYRQAPGKERELVAAISSSGGTTYYADSVKGRFTMSRDNAKNTVYLQMNSLKPEDTAVYYCAARRRSGTYWRSANDYWGQGTQVTVSS” the “polyreactivity (PSR sort gate)” value was “high polyreactivity”.
